PMC10397247

Key:
Assay in all cases: two-hybrid library CCmax;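 note: natural log of median RNA to DNA barcode read ratio; higher means stronger binding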
[1] = target: T1, 4H133-AA
T1 chain: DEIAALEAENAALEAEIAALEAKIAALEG

[2] = target: T2, 4H1349-AA; conditions: mean of both orientations
T2 chain: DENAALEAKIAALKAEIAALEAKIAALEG

[3] = target: T3, 4H1384-AA; conditions: mean of both orientations
T3 chain: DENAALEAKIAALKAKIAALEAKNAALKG

[4] = target: T4, 4H1449-AA; conditions: mean of both orientations
T4 chain: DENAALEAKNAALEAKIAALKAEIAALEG

[5] = target: T5, 4H1593-AA; conditions: mean of both orientations
T5 chain: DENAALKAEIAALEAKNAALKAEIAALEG

[6] = target: T6, 4H1878-AA; conditions: mean of both orientations
T6 chain: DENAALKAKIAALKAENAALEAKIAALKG

[7] = target: T7, 4H235-AA; conditions: mean of both orientations
T7 chain: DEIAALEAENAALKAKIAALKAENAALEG

[8] = target: T8, 4H249-AA; conditions: mean of both orientations
T8 chain: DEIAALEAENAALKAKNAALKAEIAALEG

[9] = target: T9, 4H2580-AA; conditions: mean of both orientations
T9 chain: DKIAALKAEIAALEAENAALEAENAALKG

[10] = target: T10, 4H2604-AA; conditions: mean of both orientations
T10 chain: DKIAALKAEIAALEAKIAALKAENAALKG

[11] = target: T11, 4H2621-AA; conditions: mean of both orientations
T11 chain: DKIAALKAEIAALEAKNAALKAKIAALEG

[12] = target: T12, 4H2760-AA; conditions: mean of both orientations
T12 chain: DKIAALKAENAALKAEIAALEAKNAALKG

[13] = target: T13, 4H2774-AA; conditions: mean of both orientations
T13 chain: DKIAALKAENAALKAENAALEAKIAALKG

[14] = target: T14, 4H2903-AA; conditions: mean of both orientations
T14 chain: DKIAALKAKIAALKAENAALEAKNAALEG

[15] = target: T15, 4H2947-AA
T15 chain: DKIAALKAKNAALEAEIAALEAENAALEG

[16] = target: T16, 4H2961-AA; conditions: mean of both orientations
T16 chain: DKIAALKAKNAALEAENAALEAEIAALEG

[17] = target: T17, 4H3049-AA; conditions: mean of both orientations
T17 chain: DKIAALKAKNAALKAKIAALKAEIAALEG

[18] = target: T18, 4H3094-AA; conditions: mean of both orientations
T18 chain: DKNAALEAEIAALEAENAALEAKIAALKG

[19] = target: T19, 4H324-AA; conditions: mean of both orientations
T19 chain: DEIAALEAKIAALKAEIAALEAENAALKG

[20] = target: T20, 4H341-AA; conditions: mean of both orientations
T20 chain: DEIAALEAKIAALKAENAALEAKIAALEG

[21] = target: T21, 4H3449-AA; conditions: mean of both orientations
T21 chain: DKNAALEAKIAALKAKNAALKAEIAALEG

[22] = target: T22, 4H3619-AA; conditions: mean of both orientations
T22 chain: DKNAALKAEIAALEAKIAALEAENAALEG

[23] = target: T23, 4H3629-AA; conditions: mean of both orientations
T23 chain: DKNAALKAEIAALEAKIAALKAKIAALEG

[24] = target: T24, 4H3777-AA; conditions: mean of both orientations
T24 chain: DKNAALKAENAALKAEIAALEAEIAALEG

[25] = target: T25, 4H380-AA; conditions: mean of both orientations
T25 chain: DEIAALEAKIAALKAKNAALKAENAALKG

[26] = target: T26, 4H3915-AA; conditions: mean of both orientations
T26 chain: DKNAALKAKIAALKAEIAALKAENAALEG

[27] = target: T27, 4H3974-AA; conditions: mean of both orientations
T27 chain: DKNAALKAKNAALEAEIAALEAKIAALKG

[28] = target: T28, 4H432-AA; conditions: mean of both orientations
T28 chain: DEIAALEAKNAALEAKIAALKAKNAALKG

[29] = target: T29, 4H446-AA; conditions: mean of both orientations
T29 chain: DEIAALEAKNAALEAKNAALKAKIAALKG

[30] = target: T30, 4H63-AA; conditions: mean of both orientations
T30 chain: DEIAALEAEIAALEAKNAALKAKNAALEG

An interaction score [1] of -0.665, an interaction score [2] of 0.224 and an interaction score [3] of 0.598 were found for DEIAALEAENAALEAEIAALEAKIAALEG [4H133-AA] in this work. It also gave an interaction score [4] of 0.176, an interaction score [5] of -0.948 and an interaction score [6] of 1.23. It also gave an interaction score [7] of 0.197, an interaction score [8] of 0.33 and an interaction score [9] of -1.27. For the same binder, the interaction score [10] was -0.647, the interaction score [11] was 0.704 and the interaction score [12] was 1.33. The interaction score [13] was 0.342, the interaction score [14] was -1.62 and the interaction score [15] was -0.964. It also gave an interaction score [16] of -1.33, an interaction score [17] of 2.17 and an interaction score [18] of -1.05. For the same binder, the interaction score [19] was -0.986, the interaction score [20] was -1.11 and the interaction score [21] was 0.625. For the same binder, the interaction score [22] was -0.325, the interaction score [23] was 1.24 and the interaction score [24] was 0.631. The interaction score [25] was -1.13, the interaction score [26] was 1.08 and the interaction score [27] was 0.688. For the same binder, the interaction score [28] was -0.168, the interaction score [29] was 0.854 and the interaction score [30] was -1.37.
